Measurements taken from the supplement of paper PMC9112550, “Optimization of the antimicrobial peptide Bac7 by deep mutational scanning” (BMC Biology, 2022).

System: Escherichia coli TOP10
Assay: shrunken log2 fold change of peptide-encoding DNA abundance (4.5 h post-induction vs induction); higher = less antimicrobial activity (less host growth inhibition)
Details: time post-induction: 4.5 h; library: site-saturation at positions 5, 18, 19, 20
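Note: peptides expressed intracellularly from a pBAD plasmid library in pooled LB shake-flask culture, induced with 0.3% L-arabinose, DNA abundance read by NGS, three biological replicates, DESeq2 with apeglm shrinkage.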

Sequence | shrunken log2 fold change
RRIRGRPPRLPRPRPRPEQTPRP | 0.388
RRIRIRPPRLPRPRPRPQHSPRP | -0.463
RRIRLRPPRLPRPRPRPNNDPRP | -0.763
RRIRSRPPRLPRPRPRPTILPRP | -0.413
RRIRLRPPRLPRPRPRPIDEPRP | -0.178
RRIRCRPPRLPRPRPRPVNGPRP | 1.74
RRIRWRPPRLPRPRPRPKILPRP | -0.0469
RRIRMRPPRLPRPRPRPAINPRP | 0.321
RRIRSRPPRLPRPRPRPPHPPRP | 0.325
RRIRMRPPRLPRPRPRPEQYPRP | 0.282
RRIRTRPPRLPRPRPRPGICPRP | -0.0258
RRIRLRPPRLPRPRPRPTLSPRP | -0.0659
RRIRWRPPRLPRPRPRPKCDPRP | 0.033
RRIRCRPPRLPRPRPRPVRIPRP | -0.108
RRIRIRPPRLPRPRPRPWKNPRP | -0.235
RRIRIRPPRLPRPRPRPYACPRP | -0.0484
RRIRDRPPRLPRPRPRPTNAPRP | 0.182
RRIRMRPPRLPRPRPRPTYCPRP | -0.271
RRIRERPPRLPRPRPRPGWQPRP | 0.0683
RRIRYRPPRLPRPRPRPNSVPRP | -0.257
RRIRVRPPRLPRPRPRPLCPPRP | -0.153
RRIRQRPPRLPRPRPRPIHDPRP | 0.0242
RRIRSRPPRLPRPRPRPWIAPRP | -0.181
RRIRSRPPRLPRPRPRPSNEPRP | -0.476
RRIRVRPPRLPRPRPRPYQAPRP | -0.293

Sequence | shrunken log2 fold change
RRIRSRPPRLPRPRPRPLELPRP | 0.12
RRIRIRPPRLPRPRPRPIHCPRP | -0.00133
RRIRRRPPRLPRPRPRPKDQPRP | 0.26
RRIRYRPPRLPRPRPRPWFCPRP | -0.0679
RRIRIRPPRLPRPRPRPIMTPRP | -0.26
RRIRKRPPRLPRPRPRPESMPRP | 0.603
RRIRSRPPRLPRPRPRPKHIPRP | -0.368
RRIRMRPPRLPRPRPRPYGRPRP | 0.0596
RRIRTRPPRLPRPRPRPLVVPRP | 0.193
RRIRDRPPRLPRPRPRPSYYPRP | -0.0757
RRIRYRPPRLPRPRPRPSNWPRP | -0.385
RRIRMRPPRLPRPRPRPFTTPRP | -0.0216
RRIRGRPPRLPRPRPRPVIEPRP | 0.599
RRIRPRPPRLPRPRPRPKDLPRP | -0.146
RRIRWRPPRLPRPRPRPAKGPRP | -0.0312
RRIRPRPPRLPRPRPRPVLCPRP | 0.282
RRIRTRPPRLPRPRPRPRTCPRP | 1.21
RRIRRRPPRLPRPRPRPMSDPRP | -0.00309
RRIRVRPPRLPRPRPRPQVPPRP | -0.205
RRIRSRPPRLPRPRPRPCMSPRP | -0.348
RRIRDRPPRLPRPRPRPDASPRP | -0.012
RRIRMRPPRLPRPRPRPDKNPRP | 0.373
RRIRCRPPRLPRPRPRPDQTPRP | -0.00778
RRIRLRPPRLPRPRPRPMQEPRP | 0.244
RRIRARPPRLPRPRPRPASSPRP | 0.16

Sequence | shrunken log2 fold change
RRIRHRPPRLPRPRPRPGLVPRP | 0.0437
RRIRFRPPRLPRPRPRPDWFPRP | -0.32
RRIRRRPPRLPRPRPRPHCKPRP | 0.298
RRIRYRPPRLPRPRPRPVPKPRP | 0.0938
RRIRKRPPRLPRPRPRPMQDPRP | -0.0916
RRIRYRPPRLPRPRPRPPSIPRP | -0.285
RRIRWRPPRLPRPRPRPVGDPRP | 0.33
RRIRCRPPRLPRPRPRPVLCPRP | -0.112
RRIRERPPRLPRPRPRPKRWPRP | 0.35
RRIRVRPPRLPRPRPRPLIAPRP | -0.0308
RRIRCRPPRLPRPRPRPWCWPRP | 0.0184
RRIRQRPPRLPRPRPRPIQDPRP | 0.0208
RRIRQRPPRLPRPRPRPEIPPRP | -0.0704
RRIRHRPPRLPRPRPRPDFCPRP | -0.0801
RRIRMRPPRLPRPRPRPMSVPRP | -0.00306
RRIRVRPPRLPRPRPRPIEMPRP | -0.267
RRIRCRPPRLPRPRPRPESCPRP | -0.0297
RRIRYRPPRLPRPRPRPLMVPRP | -0.439
RRIRDRPPRLPRPRPRPNMRPRP | -0.00803
RRIRRRPPRLPRPRPRPFSCPRP | 0.082
RRIRARPPRLPRPRPRPSGSPRP | 0.216
RRIRWRPPRLPRPRPRPGAMPRP | 0.524
RRIRQRPPRLPRPRPRPTTHPRP | 0.00963
RRIRLRPPRLPRPRPRPITNPRP | -0.391
RRIRLRPPRLPRPRPRPYFKPRP | -1.3

Sequence | shrunken log2 fold change
RRIRRRPPRLPRPRPRPVFLPRP | 0.0173
RRIRPRPPRLPRPRPRPVLHPRP | -0.1
RRIRHRPPRLPRPRPRPSFKPRP | -0.6
RRIRRRPPRLPRPRPRPRKDPRP | 0.302
RRIRKRPPRLPRPRPRPPTGPRP | 0.265
RRIRVRPPRLPRPRPRPEDGPRP | -0.263
RRIRFRPPRLPRPRPRPWSQPRP | -0.0158
RRIRCRPPRLPRPRPRPWIKPRP | -1.1
RRIRVRPPRLPRPRPRPEEKPRP | -0.0261
RRIRHRPPRLPRPRPRPGMIPRP | -0.187
RRIRMRPPRLPRPRPRPFCEPRP | 0.148
RRIRDRPPRLPRPRPRPVTEPRP | 0.0911
RRIRERPPRLPRPRPRPSPIPRP | -0.122
RRIRYRPPRLPRPRPRPIVQPRP | -0.121
RRIRNRPPRLPRPRPRPDVEPRP | -0.00443
RRIRSRPPRLPRPRPRPASTPRP | -0.16
RRIRRRPPRLPRPRPRPHCFPRP | 0.118
RRIRRRPPRLPRPRPRPVHLPRP | -0.022
RRIRVRPPRLPRPRPRPFRKPRP | -0.0712
RRIRFRPPRLPRPRPRPISDPRP | 0.0114
RRIRLRPPRLPRPRPRPNIHPRP | -0.621
RRIRFRPPRLPRPRPRPYRMPRP | -0.571
RRIRLRPPRLPRPRPRPKHKPRP | -0.103
RRIRARPPRLPRPRPRPGGLPRP | 0.936
RRIRLRPPRLPRPRPRPCSTPRP | -0.0337

Sequence | shrunken log2 fold change
RRIRQRPPRLPRPRPRPSVAPRP | -0.0735
RRIRRRPPRLPRPRPRPHVSPRP | -0.0166
RRIRYRPPRLPRPRPRPMPTPRP | 0.0288
RRIRKRPPRLPRPRPRPTKQPRP | -0.0553
RRIRYRPPRLPRPRPRPADKPRP | -0.419
RRIRARPPRLPRPRPRPQMVPRP | -0.0332
RRIRIRPPRLPRPRPRPNLEPRP | -0.114
RRIRLRPPRLPRPRPRPDGKPRP | -0.0351
RRIRSRPPRLPRPRPRPLFWPRP | 0.132
RRIRRRPPRLPRPRPRPCLFPRP | -0.0047
RRIRGRPPRLPRPRPRPKPKPRP | 0.601
RRIRDRPPRLPRPRPRPWPLPRP | 0.00172
RRIRERPPRLPRPRPRPSNEPRP | -0.17
RRIRMRPPRLPRPRPRPHIHPRP | -0.111
RRIRKRPPRLPRPRPRPGEIPRP | 0.0945
RRIRNRPPRLPRPRPRPDQPPRP | 0.00646
RRIRTRPPRLPRPRPRPDLFPRP | -0.0784
RRIRDRPPRLPRPRPRPFRNPRP | -0.0013
RRIRMRPPRLPRPRPRPFASPRP | 0.0812
RRIRLRPPRLPRPRPRPVESPRP | -0.0112
RRIRVRPPRLPRPRPRPTDLPRP | -0.101
RRIRRRPPRLPRPRPRPPQQPRP | 0.951
RRIRARPPRLPRPRPRPIMYPRP | -0.161
RRIRVRPPRLPRPRPRPYSDPRP | -0.145
RRIRMRPPRLPRPRPRPYDSPRP | 0.00275
